Test results published in US20230024933.

B1: mutant EYA1A in which exon 10 had been removed (EYA1AΔe10) (protein)
chain: MLLFPQVAVKTEPMSSSETASTTADGSLNNFSGSAIGSSSFSPRPTHQFSPPQIYPSNRPYPHILPTPSSQTMAAYGQTQFTTGMQQATAYATYPQPGQPYGISSYGALWAGIKTEGGLSQSQSPGQTGFLSYGTSFSTPQPGQAPYSYQMQGSSFTTSSGIYTGNNSLTNSSGFNSSQQDYPSYPSFGQGQYAQYYNSSPYPAHYMTSSNTSPTTPSTNATYQLQEPPSGITSQAVTDPTAEYSTIHSPSTPIKDSDSDRLRRGSDGKSRGRGRRNNNPSPPPDSDLERVFIWDLDETIIVFHSLLTGSYANRYGRECDQVHIDDVSSDDNGQDLSTYNFGTDGFPAAATSANLCLATGVRGGVDWMRKLAFRYRRVKEIYNTYKNNVGGLLGPAKREAWLQLRAEIEALTDSWLTLALKALSLIHSRTNCVNILVTTTQLIPALAKVLLYGLGIVFPIENIYSATKIGKESCFERIIQRFGRKVVYVVIGDGVEEEQGAKKHAMPFWRISSHSDLMALHHALELEYL
B2: EYA1 isoform A (human splice variant EYA1A, exon 10 included) (protein)
chain: MLLFPQVAVKTEPMSSSETASTTADGSLNNFSGSAIGSSSFSPRPTHQFSPPQIYPSNRPYPHILPTPSSQTMAAYGQTQFTTGMQQATAYATYPQPGQPYGISSYGALWAGIKTEGGLSQSQSPGQTGFLSYGTSFSTPQPGQAPYSYQMQGSSFTTSSGIYTGNNSLTNSSGFNSSQQDYPSYPSFGQGQYAQYYNSSPYPAHYMTSSNTSPTTPSTNATYQLQEPPSGITSQAVTDPTAEYSTIHSPSTPIKDSDSDRLRRGSDGKSRGRGRRNNNPSPPPDSDLERVFIWDLDETIIVFHSLLTGSYANRYGRDPPTSVSLGLRMEEMIFNLADTHLFFNDLEECDQVHIDDVSSDDNGQDLSTYNFGTDGFPAAATSANLCLATGVRGGVDWMRKLAFRYRRVKEIYNTYKNNVGGLLGPAKREAWLQLRAEIEALTDSWLTLALKALSLIHSRTNCVNILVTTTQLIPALAKVLLYGLGIVFPIENIYSATKIGKESCFERIIQRFGRKVVYVVIGDGVEEEQGAKKHAMPFWRISSHSDLMALHHALELEYL

Key:
[1] = biological target: histone γH2A.X^pY142, endogenous in primary murine fibroblast cultures, P27661
[2] = biological target: T1, phosphoserine substrate peptide RRApSVA
T1 chain: RRASVA

[3] = biological target: T2, phosphotyrosine substrate peptide ENDpYINASL
T2 chain: ENDYINASL

Protein | γH2A.X^pY142 foci per nucleus after NCS exposure [1] | serine phosphatase activity (dephosphorylation assay) [2] | tyrosine phosphatase activity (dephosphorylation assay with phosphorylated peptide) [3]
B1 | deletion of EYA1A critical exon 10 (EYA146e10) normalized premature γH2A.X^pY142 dephosphorylation and γH2A.X clearance | dephosphorylation assays using the synthetic serine phosphatase substrate RRApSVA demonstrated superior serine phosphatase activity | 
B2 | EYA1A overexpression induced premature γH2A.X^pY142 dephosphorylation and clearance of DSBs |  | confirmed increased tyrosine phosphatase activity of EYA1A
